Measurements taken from patent publication US20180371429.
Residue numbers refer to the chain shown, from its start.

Molecular target: T1, α-fructosyl-valyl-histidyl-leucyl-threonyl-prolyl-glutamyl-glutamyl-lysine (not fully specified)
T1 chain: VHLTPEEK

B1: CFP-DH2 (protein)
chain: MTSNRADTRVIVVGGGGTIGSSTALHLVRSGYAPANITVLDTFPIPSAQSAGHDLNKIMGIDHRNKVNLQMSLEARQMWKEDELFQPFFHNTGRMDCEHTPKGIEKLKKLYQKLHDAGAGLEKTHAWLDNEDAILSKMPLLQRDQIQGWKAIWSQDGGWLAAAKAINAIGQFLKERGVKFGFGGAGSFKQPLFDDEGTTCIGVETADGTKYYADKVVLAAGAWSPTLVDLEDQCCSKAWVYAHIQLTPEEAAKYKGCPVVYHGEFGFFFEPDEFGVIKVCDEFPGFSRFKEHQPYGAPSPKRISVPRSHAKHPTDTYPDASEVSIKKAIATFLPRFKDKPLFNRALCWCTDTADSTLLMCEHPKWKNFILATGDSGHSFKILPNVGKYVVELIEGRLPEEMAYQWRWRPGGDALKSRRAAPPKDLADMPGWKHD
- Specific activity (U/mg), 1 mM αF8P: 2.8 U/mg

B2: CFP-DH3 (protein)
chain: B1 chain with R64G
- Specific activity (U/mg), 1 mM αF8P: 4.9 U/mg
- fold improvement of specific activity on αF8P against CFP-DH2: by 1.51 to 1.75 times

B3: NvFX-62D/63H/106K/110L (protein)
chain: MTTPRKETTVLIIGGGGTIGSSTALHLLRAGYTPSNITVLDTYPIPSAQSAGNDLNKIMGIDHRNKVDLQLSLEARDMWRNDALFRPFFHNTGRLDCESSAEGVEKLRRLYQKLVEAGVGLEETHEWLDSEEAILEKAPLLQREEIEGWKAIWSEEGGWLAAAKAINAIGEELQRQGVRFGFGGAGSFKRPLFADDGTTCIGVETVDGTQYHADKVVLAAGAWSPALVDLEEQCCSKAWVYAHMQLTPEEAAVYKGCPVVYHGDVGFFFEPNENGVIKVCDEFPGFTRFKQHQPYGAPAPKPVSVPRSHAKHPTDTYPDASEESIKRAVSTFLPRFKDKPLFNRALCWCTDTADSALLICEHPRWKNFILATGDSGHSFKLLPIIGKHVVELVEGRLADDLAEAWRWRPGQGDARKSIRAAPAKDLADMPGWKHDQDSESR
- Specific activity (mU/mg), 10 µM αF8P: 0.3 mU/mg

B4: NvFX-62D/63H/106K/110L-64T (protein)
chain: B3 chain with R64T
- Specific activity (mU/mg), 10 µM αF8P: 0.38 mU/mg

B5: NvFX-62D/63H/106K/110L-64S (protein)
chain: B3 chain with R64S
- Specific activity (mU/mg), 10 µM αF8P: 0.37 mU/mg

B6: NvFX-62D/63H/106K/110L-64M (protein)
chain: B3 chain with R64M
- Specific activity (mU/mg), 10 µM αF8P: 0.42 mU/mg

B7: PnFX-62D/63H/106K/110L/113K/351S (protein)
chain: MAPSRANTSVIVVGGGGTIGSSTALHLVRSGYTPSNVTVLDAYPIPSSQSAGNDLNKIMGVDHRNPVDLQLALEARQMWNEDELFKKFFHNTGRLDCAHGEKDIAKLKSLYQKLVDAGLDATNEWLDSEDEILKRMPLLSRDQIKGWKAIFSKDGGWLAAAKAINAVGEYLRDQGVRFGFYGAGSFKAPLLAEGVCIGVETVDGTRYYADKVVLAAGAWSPTLVELHEQCVSKAWVYGHIQLTPEEAARYKNSPVVYNGDVGFFFEPNEHGVIKVCDEFPGFTRFKMHQPFGAKAPKRISVPRSHAKHPTDTIPDASDVSIRRAIATFMPQFKNKKMFNQAMCWCTDTADSALLICEHPEWKNFVLATGDSGHSFKLLPNIGKHVVELLEGTLADDLAHAWRWRPGSGDALKSRRSAPAKDLADMPGWNHDKPRANL
- Specific activity (mU/mg), 10 µM αF8P: 2 mU/mg

B8: PnFX-62D/63H/106K/110L/113K/351S-64S (protein)
chain: B7 chain with R64S
- Specific activity (mU/mg), 10 µM αF8P: 2.2 mU/mg

B9: CcFX-62D/63H/102K/106K (protein)
chain: MAPSRANTSVIVVGGGGTIGSSTALHLVRSGYTPSNITVLDTYPIPSAQSAGNDLNKIMGIDHRNKVDLQLSLEARQMWREDDLFKEYFHNTGRLDCAHGEKGLAKLRQAYQALLDANAGLEETTEWLDSEDEILKKMPLLDREQIKGWKAVYSQDGGWLAAAKAINAIGEYLRAQGVKFGFGGAGSFKQPLLAEGVCIGVETVDGTRYYADKVVLAAGAWSPVLVDLEDQCVSKAWVYAHIQLTPEEAAEYKNVPVVYNGDVGFFFEPDEHGVIKVCDEFPGFTRFKQHQPYGAKAPKRISVPRSAAKHPTDTYPDASEKSIRKAIATFLPKFTEKELFNRHLCWCTDTADAALLMCEHPEWKNFVLATGDSGHTFKLLPNIGKHVVELLEGTLAEDLAHAWRWRPGTGDALKSRRAAPAKDLADMPGWKHDDVVKSKL
- Specific activity (mU/mg), 10 µM αF8P: 1.3 mU/mg

B10: CcFX-62D/63H/102K/106K-64L (protein)
chain: B9 chain with R64L
- Specific activity (mU/mg), 10 µM αF8P: 2 mU/mg

B11: CcFX-62D/63H/102K/106K-64T (protein)
chain: B9 chain with R64T
- Specific activity (mU/mg), 10 µM αF8P: 1.5 mU/mg

B12: CFP-T7-H38-V (protein)
chain: MTSNRADTRVIVVGGGGTIGSSTALHLVRSGYAPANITVLDTFEIPSAQSAGHDLNKIMGIDHVNKVNLQMSLEARQMWKEDELFQPFFHNTGRMDCEHTPKGIEKLKKLYQKLHDAGAGLEKTHAWLDNEDEILSKMPLLQRDQIQGWKAIWSQDGGWLAAAKAINAIGQFLKERGVKFGFGGAGSFKQPLFDDEGTTCIGVETADGTKYYADKVVLAAGAWSPTLVDLEDQCCSKAWVYAHIQLTPEEAAEYKGVPVVYNGEFGFFFEPDEFGVIKVCDEFPGFSRFKEHQPYGAPSPKRISVPRSHAKHPTDTYPDASEVSIKKAIATFLPRFQDKELFNRALCWCTDTADSTLLMCEHPKWKNFILATGDSGHSFKILPNVGKYVVELIEGRLPEEMAYQWRWRPGGDALKSRRAAPPKDLADMPGWKHDPKL
- Specific activity (mU/mg), 10 µM αF8P: 86 mU/mg

B13: CFP-T7-H38-S (protein)
chain: B12 chain with V64S
- Specific activity (mU/mg), 10 µM αF8P: 89.7 mU/mg

B14: CFP-T7-H38-GH (protein)
chain: B12 chain with V64G, L110H
- Specific activity (mU/mg), 10 µM αF8P: 143 mU/mg

B15: CFP-T7-H38-A (protein)
chain: B12 chain with V64A
- Specific activity (U/mg), 1 mM αF8P: 3.26 U/mg

B16: CFP-T7-H38-L (protein)
chain: B12 chain with V64L
- Specific activity (mU/mg), 10 µM αF8P: 84.3 mU/mg

B17: CFP-T7-H38-T (protein)
chain: B12 chain with V64T
- Specific activity (mU/mg), 10 µM αF8P: 78.7 mU/mg

B18: CFP-T7-H37 (protein)
chain: B12 chain with V64R
- Specific activity (U/mg), 1 mM αF8P: 4.18 U/mg
- Specific activity (mU/mg), 10 µM αF8P: 44.4 mU/mg

B19: CFP-T7-H38-GY (protein)
chain: B12 chain with V64G, L110Y
- Specific activity (mU/mg), 10 µM αF8P: 174 mU/mg

B20: CFP-T7-H38-M (protein)
chain: B12 chain with V64M
- Specific activity (mU/mg), 10 µM αF8P: 84.4 mU/mg

B21: CFP-T7-H38-GF (protein)
chain: B12 chain with V64G, L110F
- Specific activity (mU/mg), 10 µM αF8P: 145 mU/mg

B22: CFP-T7-H38-I (protein)
chain: B12 chain with V64I
- Specific activity (mU/mg), 10 µM αF8P: 78.7 mU/mg

B23: CFP-T7-H38-GYS (protein)
chain: B12 chain with V64G, H99S, L110Y
- Specific activity (mU/mg), 10 µM αF8P: 196 mU/mg

B24: CFP-T7-H38-G (protein)
chain: B12 chain with V64G
- Specific activity (U/mg), 1 mM αF8P: 6.33 U/mg
- Specific activity (mU/mg), 10 µM αF8P: 95.9 mU/mg
- fold improvement of specific activity on αF8P against CFP-T7-H37: by 1.51 to 1.75 times
